{"source": "paper PMC6488372", "about": "(Molecular microbiology, 2019)", "binders": {"B1": {"name": "LuxR (native, wild-type), purified (natural protein)", "chain": "MDSIAKRPRTRLSPLKRKQQLMEIALEVFARRGIGRGGHADIAEIAQVSVATVFNYFPTREDLVDEVLNHVVRQFSNFLSDNIDLDIHARENIANITNAMIELVSQDCHWLKVWFEWSASTRDEVWPLFVTTNRTNQLLVQNMFIKAIERGEVCDQHEPEHLANLFHGICYSIFVQANRSKSEAELTNLVSAYLDMLCIYNREHH"}}, "biological_target": "E. coli His-α ΔCTD (His-α Δ235, α 1–234) (E. coli, UniProt P0A7Z4 1-234)", "assay": "BLI", "data": [{"binder": "B1", "values": [{"measurement": "Kd", "value": 256, "unit": "nM"}]}]}
